Test [1] deals with T1, human TIGIT on CHO-K1 cells (human, UniProt Q495A1 23-244).
T1 construct: also called hu TIGIT; TIGIT+CHO-K1 cells
T1 sequence: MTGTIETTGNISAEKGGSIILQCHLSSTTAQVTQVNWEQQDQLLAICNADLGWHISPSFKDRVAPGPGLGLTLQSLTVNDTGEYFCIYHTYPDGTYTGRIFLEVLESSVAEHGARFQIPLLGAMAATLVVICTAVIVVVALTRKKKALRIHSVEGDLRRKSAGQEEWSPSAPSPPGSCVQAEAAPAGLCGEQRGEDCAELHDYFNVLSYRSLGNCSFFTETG
As to the kind of experiment: flow cytometry competition with biotinylated hPVR-mIg on CHO-K1 cells expressing human TIGIT. On the procedure:
The cells were washed 2 times before staining with PE streptavidin (BioLegend) for 20 min at 4 C. The cells were then washed, resuspended in 30 μl 7 AAD solution, and 35 μl of 10% neutral buffered formalin solution was added. The cells were then incubated for 15 min. Flow cytometry was performed and IC50 was calculated using iQue intellicyt system.
On the technique in general: A flow cytometer gives signals particle by particle.

For test [2], the target named is T2, cyno PD-1 on CHO-K1 cells (cyno).
T2 construct: whole, on cells; also called cyno hu PD-1; Cyno PD-1 transfected CHO-K1 cells
Briefly: flow cytometry blocking assay of Example 11, PD-L1 on cyno PD-1 CHO-K1 cells; cyno taken from the legend paragraph 42 ('cyno-hu'), while Example 11 speaks of human PD-1 and human PD-L1 for this figure. On the procedure: (§1) Human or Cyno PD-1 transfected CHO-K1 cells were washed with FACS buffer (0.5% BSA 2 mM EDTA in PBS) and re-suspended at a concentration of 10⁶ cells/ml. […] The cells were then washed and re-suspended in 30 μl 7 AAD solution; 35 μl 10% neutral buffered formalin solution was then added and incubated for 15 mins. before analysis using the iQue intellicyt system.

In test [3] the target is T3, human PD-1 on CHO-K1 cells (human, UniProt Q15116 25-288).
T3 construct: also called Human PD-1 transfected CHO-K1 cells
Briefly: flow cytometry blocking assay: FITC human PD-L1-Fc on human PD-1 CHO-K1 cells (Example 11; the legend paragraph 42 calls it binding to hu PD-L1). On the procedure:
as §1

For test [4], the target named is T3, human PD-1 on CHO-K1 cells. Briefly: flow cytometry blocking assay: FITC human PD-L1-Fc on human PD-1 CHO-K1 cells (Examples 11 and 16); title: Blocking PD-L1 binding to PD-1. The protocol:
as §1

The target of test [5] is T1, human TIGIT on CHO-K1 cells. Briefly: flow cytometry blocking assay: PVR (hPVR-mIg, m14, by Examples 4 and 6) on human TIGIT CHO-K1 cells (Example 16); title: Blocking PVR binding to TIGIT.
Test [6] has as its target T4, His tagged human PD-1 protein (human, UniProt Q15116 25-170, limits assumed).
T4 construct: also called huPD-1-His; not shown: His tag
As to the kind of experiment: bio-layer interferometry (Octet RED96), antibody on anti-human IgG capture biosensors, His tagged human PD-1 as analyte, 1:1 global fit (Example 12). The protocol: […] was carried out using the Octet RED96 system (ForteBio Octet RED96 System) to characterize the binding kinetics of antibodies against His tagged human PD-1 protein. 20 nM of antibody was loaded onto the anti-human IgG capture biosensors. Association of analyte (His tagged human PD-1 protein) was observed by placing the biosensors in wells containing 2 or 3 fold serial dilution of analytes (72 nM being the highest concentration) for 5 mins. Dissociation was measured after transfer of the biosensors into kinetic buffer alone and monitoring of the interferometry signal for 10 minutes. The observed on and off rates (Ka and Kd) were fit using a 1:1 binding global fit model comprising at least 5 concentrations tested, and the equilibrium binding constant KD was then calculated.
For orientation: BLI is a label-free optical method that tracks binding on a fibre tip over time.

Test [7] addresses T3, human PD-1 on CHO-K1 cells. As to the kind of experiment: flow cytometry blocking assay: FITC human PD-L1-Fc on human PD-1 CHO-K1 cells (Example 11). On the procedure:
as §1

Where a chain is given by its changes, count along the chain named.

T3 sequence (Q15116 25-288): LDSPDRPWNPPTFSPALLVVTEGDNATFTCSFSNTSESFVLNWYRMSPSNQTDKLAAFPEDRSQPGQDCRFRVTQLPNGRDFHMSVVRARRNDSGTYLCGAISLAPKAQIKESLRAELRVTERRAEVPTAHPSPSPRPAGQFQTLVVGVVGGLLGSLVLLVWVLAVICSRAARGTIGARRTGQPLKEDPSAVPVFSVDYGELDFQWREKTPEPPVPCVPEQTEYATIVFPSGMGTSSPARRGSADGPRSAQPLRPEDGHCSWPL
T4 sequence (Q15116 25-170 limits assumed): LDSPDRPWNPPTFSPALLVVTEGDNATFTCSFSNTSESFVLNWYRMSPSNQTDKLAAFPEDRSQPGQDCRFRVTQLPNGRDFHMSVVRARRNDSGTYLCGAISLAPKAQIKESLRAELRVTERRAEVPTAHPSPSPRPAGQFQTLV

B1: T-02 (antibody, V domains shown)
VH: QVKLQESGPGLVKPSQTLSLTCTVTGYSITSDYAWNWIRQPPGKGLEWIGYITYSGGTSYNPSLKSRVTISVDTSKNQFSLKLSSVTAADTAVYSCARRQIGLGFTYWGQGTLVTVSA
VL: DIQMTQSPSSLSASVGDRVTIPCKASQDLSTAVAWYQQKPGKAPKLLIYSSSYRYTGVPSRFSGSGSGTDFTLTISSLQPEDFATYYCQQSYSTPQQHYSTPWTFGEGTKLEIK
notes: Anti-human TIGIT monoclonal antibody from mouse hybridoma; also called anti-hu TIGIT mab T-02
The term IC50 denotes the concentration that inhibits the measured activity by half. Read a high IC50 as weaker potency in that assay. On to B1, for which, in test [1], the half-inhibitory concentration (IC50) is 0.35 to 0.71 nM.

B2: PD-06 (antibody, V domains shown)
VH: QVQLVQSGAEVKKPGASVKVSCKASGYTFTSYYIHWVRQAPGQRLEWMGWIFPGSGNSKYNENFKGRVTITRDTSASTAYMELSSLRSEDTAVYFCASETYDYGDYWGQGTLVTVSS
VL: DIQMTQSPSSLSASVGDRVTITCKASQNVGTNVAWYQQKPGKAPKSLIYSASYRYSGVPSRFSGSGSGTDFTLTISSLQPEDFATYFCQQYYSYPYTFGQGTKLEIK
notes: also called anti-PD-1 mab PD-06
Consider B2, for which the half-inhibitory concentration (IC50) in test [2] was found to be 2.14 nM; in test [3], 0.65 nM.

B3: TP-M9T10P1 (TP-93) (bispecific antibody, human IgG4 S228P, kappa)
heavy: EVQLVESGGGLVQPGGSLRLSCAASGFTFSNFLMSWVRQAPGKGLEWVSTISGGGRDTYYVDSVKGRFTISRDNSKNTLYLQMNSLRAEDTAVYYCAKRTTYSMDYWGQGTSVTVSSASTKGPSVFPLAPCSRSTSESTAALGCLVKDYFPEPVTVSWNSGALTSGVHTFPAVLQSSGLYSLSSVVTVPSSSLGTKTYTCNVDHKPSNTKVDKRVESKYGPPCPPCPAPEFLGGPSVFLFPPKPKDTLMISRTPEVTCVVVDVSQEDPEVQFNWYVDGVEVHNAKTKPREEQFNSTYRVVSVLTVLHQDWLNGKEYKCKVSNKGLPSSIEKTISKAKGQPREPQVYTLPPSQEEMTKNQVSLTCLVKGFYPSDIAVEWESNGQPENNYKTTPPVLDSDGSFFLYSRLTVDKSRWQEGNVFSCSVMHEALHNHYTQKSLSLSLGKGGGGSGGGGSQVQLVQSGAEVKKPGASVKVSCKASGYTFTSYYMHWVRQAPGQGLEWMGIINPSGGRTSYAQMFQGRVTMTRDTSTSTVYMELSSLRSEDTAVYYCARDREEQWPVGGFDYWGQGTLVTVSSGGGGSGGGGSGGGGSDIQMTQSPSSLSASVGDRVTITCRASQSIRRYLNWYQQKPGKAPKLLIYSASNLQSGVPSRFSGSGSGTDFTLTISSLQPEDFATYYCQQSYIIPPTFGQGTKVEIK
light: DIQMTQSPSSVSASVGDRVTITCLASQTIGTWLAWYQQKPGKAPKLLIDAATSLADGVPSRFSGSGSGTDFTLTISSLQPEDFATYYCQQFYSIPWTFGGGTKLEIKRTVAAPSVFIFPPSDEQLKSGTASVVCLLNNFYPREAKVQWKVDNALQSGNSQESVTEQDSKDSTYSLSSTLTLSKADYEKHKVYACEVTHQGLSSPVTKSFNRGEC
notes: Anti-TIGIT x anti-PD-1; The tie is in embodiment wording ('about 80% to about 100% homologous to')
B3: the results for the IC50 in test [4] and in test [5] were 1.4 nM and 0.4 nM, respectively.

B4: TP-M10T8P5 (TP-92) (bispecific antibody, human IgG4 S228P)
heavy: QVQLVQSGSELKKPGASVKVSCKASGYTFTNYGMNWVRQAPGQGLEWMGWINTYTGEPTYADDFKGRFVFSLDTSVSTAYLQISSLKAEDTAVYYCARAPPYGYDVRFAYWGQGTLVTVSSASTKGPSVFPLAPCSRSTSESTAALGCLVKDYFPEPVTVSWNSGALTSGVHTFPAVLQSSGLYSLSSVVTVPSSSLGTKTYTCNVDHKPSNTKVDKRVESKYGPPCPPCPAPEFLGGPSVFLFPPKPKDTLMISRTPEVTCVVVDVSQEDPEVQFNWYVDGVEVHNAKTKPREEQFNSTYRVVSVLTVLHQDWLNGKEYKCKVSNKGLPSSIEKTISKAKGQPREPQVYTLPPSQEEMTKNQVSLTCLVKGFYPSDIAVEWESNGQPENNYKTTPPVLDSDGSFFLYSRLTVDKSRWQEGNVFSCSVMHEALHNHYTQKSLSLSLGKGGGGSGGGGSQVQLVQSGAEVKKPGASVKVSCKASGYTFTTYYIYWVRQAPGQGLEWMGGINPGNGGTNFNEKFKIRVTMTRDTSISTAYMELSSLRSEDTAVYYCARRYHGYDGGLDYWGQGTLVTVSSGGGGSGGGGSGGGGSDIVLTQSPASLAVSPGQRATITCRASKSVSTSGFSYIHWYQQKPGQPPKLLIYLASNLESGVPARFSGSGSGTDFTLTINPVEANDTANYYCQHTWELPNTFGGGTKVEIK
light: DVVMTQSPLSLPVTLGQPASISCRSSQSIVHSNGNTYLEWFQQRPGQSPRVLIYKVSDRFSGVPDRFSGSGSGTDFTLKISRVEAEDVGVYYCFQGSHVPWTFGRGTKLEIK
notes: as for B3
Turning to B4, in test [5], the IC50 was determined as 0.4 nM.

B5: PD-02 mab (antibody, V domains shown)
VH: QVQLVQSGAEVKKPGASVKVSCKASDYTFTNSYLYWLRQAPGQGLEWMGGINPSNGGTNFNEKFKTRTTSTRDTSISTAYMELSRLRSDDTVVYYCTRRDYNYDGGFDSWGQGTLVTVSS
VL: DIQMTQSPSSLSASVGDRVTFTCRASSTLYSNYLHWYQQKPGKAPKLLIYRASFLASGVPSRFSGSGSGTDFTLTISSLQPEDFATYYCQQGSSIPLTFGGGTKVEIK
Broadly, the Kd is a measure of binding affinity in units of concentration. A lower Kd goes with tighter binding. What is called koff is the rate constant with which the complex falls apart. The low end stands for a long-lived complex, the high end for a short-lived complex. What is called kon is a measure of how fast the partners come together. Higher therefore signals fast association. In test [6], B5 yielded a dissociation constant Kd of 3.7 nM, an off-rate constant (koff) of 0.000395 s⁻¹ and an on-rate constant (kon) of 106000 M⁻¹ s⁻¹. The molecule also gave a half-maximal inhibitory concentration (IC50) in test [2] of 1.72 nM. In test [7], this molecule had an IC50 of 2.05 nM. This molecule displayed a 50% inhibitory concentration (IC50) in test [3] of 0.54 nM.

B6: PD-04 (antibody, V domains shown)
VH: B5 VH with L34I, L37V, T68V, T97A
VL: B5 VL with T28S
notes: also called anti-PD-1 mab PD-04
As to B6, the concentration for half-maximal inhibition (IC50) is 2.15 nM in test [2] and 0.82 nM in test [3].

B7: T-05 (antibody, V domains shown)
VH: EVQLKQSGAEVKKPGATVKISCKVSGYTFTDQAIHWVQQAPGKGLEWMGYIYPRDGSTKYNETFKGRVTITADTSTDTAYMELSSLRSEDTAVYFCARGMLRWFAYWGQGTLVTVSS
VL: DIQMTQSPSSLSASVGDRVTITCKASQDVSTAVAWYQQKPGKAPKLLIYSASYRYTGVPSRFSGSGSGTDFTLTISSLQPEDFATYYCQQHYSTPLTFGAGTKLELK
notes: Anti-human TIGIT monoclonal antibody from mouse hybridoma; also called anti-hu TIGIT mab T-05
As to B7, the IC50 in test [1] is 0.2 to 0.46 nM.

B8: T-06 (antibody, V domains shown)
VH: B1 VH with K3Q, T25S, Y27G, I29V, T30S, G57S, S95Y, I101V, T106A
VL: B7 VL with R54H, L96W, A100G, L106I
notes: Anti-human TIGIT monoclonal antibody from mouse hybridoma; also called anti-hu TIGIT mab T-06
In turn, B8 registered an IC50 in test [1] of 0.84 nM.

B9: T-07 (antibody, V domains shown)
VH: EVQLQESGPGLVKPSDTLSLTCAVSGYSITSDSAWNWIRQPPGKGLEWIGYITYSGSTNYNPSLRSRVTMSVDTSKNQFSLKLSSVTAVDTAVYYCTRRQVGLGFAYWGQGTLVTVSA
VL: B7 VL with Y55F, V58A, A84G, T85I, Q90H, L96W, A100G, L106F
notes: Anti-human TIGIT monoclonal antibody from mouse hybridoma; also called anti-hu TIGIT mab T-07
In test [1], B9 showed a concentration for half-maximal inhibition (IC50) of 0.5 nM.

B10: T-03 (antibody, V domains shown)
VH: B7 VH with K5V, Q32H, A33T, I51F, T63K, F95Y, R98T, Y106D, V113I, S117V
VL: B7 VL with A32T
notes: Anti-human TIGIT monoclonal antibody from mouse hybridoma; also called anti-hu TIGIT mab T-03
With B10, in test [1], the IC50 fell in the range of 0.26 to 0.52 nM.

B11: T-09 (antibody, V domains shown)
VH: QVTLKESGPTLVKPTQTLTLTCTFSGFSLSTFAMGVGWIRQPPGKALEWLAHIWWDDDKYYNPALKSRLTITKDTSKNQVVLTMTNMDPVDTATYYCARMDYSYFAWFAYWGQGTLVTVSS
VL: QAVVTQEPSLTVSPGGTVTLTCRSSTGAVTTSNYANWVQQKPGQLFRGLIGGTNNRAPWVPARFSGSLIGDKAALTLSGVQPEDEAEYFCALWYSNHWVFGGGTKLTVL
notes: Anti-human TIGIT monoclonal antibody from mouse hybridoma; also called anti-hu TIGIT mab T-09
With B11, in test [1], the IC50 was 0.36 to 0.42 nM.

B12: TP-M8T10P1 (TP-83) (bispecific antibody)
heavy: QVQLVQSGAEVKKPGASVKVSCKASGYTFTSYYMHWVRQAPGQGLEWMGIINPSGGRTSYAQMFQGRVTMTRDTSTSTVYMELSSLRSEDTAVYYCARDREEQWPVGGFDYWGQGTLVTVSS
light: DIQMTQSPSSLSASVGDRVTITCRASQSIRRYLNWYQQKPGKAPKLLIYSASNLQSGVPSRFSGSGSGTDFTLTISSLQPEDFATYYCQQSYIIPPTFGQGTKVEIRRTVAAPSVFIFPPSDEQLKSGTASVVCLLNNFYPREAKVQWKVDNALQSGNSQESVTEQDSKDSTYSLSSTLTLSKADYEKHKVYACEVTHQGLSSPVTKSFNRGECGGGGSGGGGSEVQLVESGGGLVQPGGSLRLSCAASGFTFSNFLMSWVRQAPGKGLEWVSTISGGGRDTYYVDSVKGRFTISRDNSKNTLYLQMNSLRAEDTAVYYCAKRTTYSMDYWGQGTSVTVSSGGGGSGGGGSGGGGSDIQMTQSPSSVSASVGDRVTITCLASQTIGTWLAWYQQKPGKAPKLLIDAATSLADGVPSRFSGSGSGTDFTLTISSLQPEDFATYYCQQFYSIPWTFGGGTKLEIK
notes: as for B3
As for B12, the concentration for half-maximal inhibition (IC50) in test [4] was found to be 1.8 nM; in test [5] it was 0.21 nM.
